Assay in all cases: Kinase Profiling Assay
Type in all cases: biochemical
Common to all, as to conditions: peptide 100 μM

The target of test [1] is T1, EphB2(h) (Homo sapiens, UniProt P29323).
T1 sequence (P29323 19-1055): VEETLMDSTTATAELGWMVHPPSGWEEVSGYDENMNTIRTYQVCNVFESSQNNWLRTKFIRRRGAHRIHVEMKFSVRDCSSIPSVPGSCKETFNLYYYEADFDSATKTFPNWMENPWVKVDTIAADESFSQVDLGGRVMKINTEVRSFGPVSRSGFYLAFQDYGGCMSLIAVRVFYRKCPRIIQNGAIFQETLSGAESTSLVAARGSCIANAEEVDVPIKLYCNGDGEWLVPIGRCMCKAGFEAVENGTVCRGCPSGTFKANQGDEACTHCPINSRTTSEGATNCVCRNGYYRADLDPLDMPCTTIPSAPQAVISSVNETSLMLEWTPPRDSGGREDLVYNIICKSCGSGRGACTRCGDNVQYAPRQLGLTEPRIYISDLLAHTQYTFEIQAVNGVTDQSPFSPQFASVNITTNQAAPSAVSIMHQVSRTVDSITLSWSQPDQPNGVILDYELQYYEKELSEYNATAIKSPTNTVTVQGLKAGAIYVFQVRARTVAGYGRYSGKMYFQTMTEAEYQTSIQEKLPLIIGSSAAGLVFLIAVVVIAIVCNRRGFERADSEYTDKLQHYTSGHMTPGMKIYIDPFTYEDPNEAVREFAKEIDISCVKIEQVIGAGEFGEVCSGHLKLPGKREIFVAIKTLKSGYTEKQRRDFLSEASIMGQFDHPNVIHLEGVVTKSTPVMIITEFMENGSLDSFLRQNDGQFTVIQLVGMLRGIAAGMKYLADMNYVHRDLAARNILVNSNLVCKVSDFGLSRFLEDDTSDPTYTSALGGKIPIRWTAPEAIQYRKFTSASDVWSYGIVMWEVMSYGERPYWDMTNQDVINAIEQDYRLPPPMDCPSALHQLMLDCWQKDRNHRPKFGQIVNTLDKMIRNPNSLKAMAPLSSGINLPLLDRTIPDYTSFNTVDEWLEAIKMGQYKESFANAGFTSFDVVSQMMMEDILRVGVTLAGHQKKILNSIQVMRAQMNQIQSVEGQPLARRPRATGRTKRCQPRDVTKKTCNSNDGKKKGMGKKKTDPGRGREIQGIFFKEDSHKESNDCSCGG
A digest of the protocol:
(§1)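 Kinase inhibition by MK2 inhibitory peptides was profiled radiometrically, with substrate phosphorylation from labeled ATP read by scintillation after capture on a charged filter. Values are relative to 100% activity and measured in duplicate.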

Test [2] has as its target PKCθ(h) (Homo sapiens, UniProt Q04759). In outline: as §1
The target in test [3] is T2, Met(Y1248C)(h) (Homo sapiens, UniProt P08581, Y1230C).
T2 construct: purchased Millipore
A digest of the protocol:
as §1

In test [4] the target is PDGFRα(V561D)(h) (Homo sapiens, UniProt P16234, V561D). In outline:
as §1

Test [5] concerns the target T3, PKG1β(h) (Homo sapiens, UniProt Q13976).
T3 sequence (Q13976 1-686 isoform Q13976-2): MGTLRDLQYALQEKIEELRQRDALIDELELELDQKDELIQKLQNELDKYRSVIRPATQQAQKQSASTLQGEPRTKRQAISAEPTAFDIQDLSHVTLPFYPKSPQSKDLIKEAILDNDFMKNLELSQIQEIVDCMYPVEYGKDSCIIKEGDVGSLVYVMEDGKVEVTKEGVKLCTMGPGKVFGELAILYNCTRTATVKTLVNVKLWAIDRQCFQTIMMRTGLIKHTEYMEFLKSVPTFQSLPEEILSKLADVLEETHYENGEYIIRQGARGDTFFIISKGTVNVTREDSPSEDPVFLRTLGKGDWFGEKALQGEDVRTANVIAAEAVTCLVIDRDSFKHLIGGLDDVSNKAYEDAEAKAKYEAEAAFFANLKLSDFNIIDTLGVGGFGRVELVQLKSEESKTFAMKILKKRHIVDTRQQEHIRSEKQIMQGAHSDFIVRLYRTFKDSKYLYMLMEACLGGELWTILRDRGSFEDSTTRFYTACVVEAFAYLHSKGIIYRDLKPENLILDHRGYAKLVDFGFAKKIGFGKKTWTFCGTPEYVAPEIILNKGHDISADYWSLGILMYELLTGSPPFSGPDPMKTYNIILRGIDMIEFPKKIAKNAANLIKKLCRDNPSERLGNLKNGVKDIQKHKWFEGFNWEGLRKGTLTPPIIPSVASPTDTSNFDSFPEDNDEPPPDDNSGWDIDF
A digest of the protocol:
as §1

Test [6] deals with CDK2/cyclinE(h) (Homo sapiens, UniProt P24941). In outline:
as §1

The target in test [7] is FGFR2(h) (Homo sapiens, UniProt P21802). A digest of the protocol: as §1
Test [8] has as its target VRK2(h) (Homo sapiens, UniProt Q86Y07). In outline: as §1
Test [9] addresses T4, Mnk2(h) (Homo sapiens, UniProt Q9HBH9).
T4 construct: purchased Millipore
A digest of the protocol:
as §1

Here are results for 5 sequences from patent US20150258192A1, “COMPOSITIONS AND METHODS FOR PREVENTING OR TREATING CHRONIC LUNG ALLOGRAFT DYSFUNCTION (CLAD) AND IDIOPATHIC PULMONARY FIBROSIS (IPF)” (priority 2014, published 2015).

No end group written: not given here.

Chain of VRK2(h) (Q86Y07 whole entry): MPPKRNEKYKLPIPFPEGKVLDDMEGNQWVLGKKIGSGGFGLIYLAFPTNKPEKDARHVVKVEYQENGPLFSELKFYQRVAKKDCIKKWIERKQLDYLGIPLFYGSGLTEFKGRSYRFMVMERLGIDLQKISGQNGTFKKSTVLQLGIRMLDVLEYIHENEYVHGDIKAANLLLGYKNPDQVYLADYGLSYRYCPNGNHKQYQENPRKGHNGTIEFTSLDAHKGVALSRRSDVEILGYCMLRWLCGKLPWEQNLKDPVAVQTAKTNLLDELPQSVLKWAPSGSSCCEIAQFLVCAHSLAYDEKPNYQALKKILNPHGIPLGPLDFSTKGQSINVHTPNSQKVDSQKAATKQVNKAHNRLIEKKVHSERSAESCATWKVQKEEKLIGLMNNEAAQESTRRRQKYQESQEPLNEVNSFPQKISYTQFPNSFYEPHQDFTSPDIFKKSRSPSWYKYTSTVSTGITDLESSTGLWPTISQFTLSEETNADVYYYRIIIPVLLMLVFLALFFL
Chain of PKCθ(h) (Q04759 whole entry): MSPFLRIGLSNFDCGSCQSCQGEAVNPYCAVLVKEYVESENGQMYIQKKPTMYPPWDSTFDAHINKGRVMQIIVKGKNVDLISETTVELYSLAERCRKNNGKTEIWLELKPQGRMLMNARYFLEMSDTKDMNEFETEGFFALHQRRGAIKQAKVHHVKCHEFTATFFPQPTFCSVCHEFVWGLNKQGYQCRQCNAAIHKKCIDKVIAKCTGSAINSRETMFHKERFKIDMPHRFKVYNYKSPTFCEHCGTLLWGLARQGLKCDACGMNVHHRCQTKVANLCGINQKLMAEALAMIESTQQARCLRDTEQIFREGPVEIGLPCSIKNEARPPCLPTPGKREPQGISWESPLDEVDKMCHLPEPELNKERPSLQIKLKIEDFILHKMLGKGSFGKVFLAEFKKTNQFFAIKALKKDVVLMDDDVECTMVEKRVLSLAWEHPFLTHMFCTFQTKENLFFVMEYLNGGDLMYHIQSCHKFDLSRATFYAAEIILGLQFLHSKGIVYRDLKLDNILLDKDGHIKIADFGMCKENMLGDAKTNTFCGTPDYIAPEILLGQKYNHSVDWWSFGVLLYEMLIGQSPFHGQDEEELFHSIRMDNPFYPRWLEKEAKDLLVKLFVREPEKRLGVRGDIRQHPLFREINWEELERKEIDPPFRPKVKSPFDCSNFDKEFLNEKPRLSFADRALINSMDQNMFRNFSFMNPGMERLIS
Chain of PDGFRα(V561D)(h) (P16234 24-1089 V561D): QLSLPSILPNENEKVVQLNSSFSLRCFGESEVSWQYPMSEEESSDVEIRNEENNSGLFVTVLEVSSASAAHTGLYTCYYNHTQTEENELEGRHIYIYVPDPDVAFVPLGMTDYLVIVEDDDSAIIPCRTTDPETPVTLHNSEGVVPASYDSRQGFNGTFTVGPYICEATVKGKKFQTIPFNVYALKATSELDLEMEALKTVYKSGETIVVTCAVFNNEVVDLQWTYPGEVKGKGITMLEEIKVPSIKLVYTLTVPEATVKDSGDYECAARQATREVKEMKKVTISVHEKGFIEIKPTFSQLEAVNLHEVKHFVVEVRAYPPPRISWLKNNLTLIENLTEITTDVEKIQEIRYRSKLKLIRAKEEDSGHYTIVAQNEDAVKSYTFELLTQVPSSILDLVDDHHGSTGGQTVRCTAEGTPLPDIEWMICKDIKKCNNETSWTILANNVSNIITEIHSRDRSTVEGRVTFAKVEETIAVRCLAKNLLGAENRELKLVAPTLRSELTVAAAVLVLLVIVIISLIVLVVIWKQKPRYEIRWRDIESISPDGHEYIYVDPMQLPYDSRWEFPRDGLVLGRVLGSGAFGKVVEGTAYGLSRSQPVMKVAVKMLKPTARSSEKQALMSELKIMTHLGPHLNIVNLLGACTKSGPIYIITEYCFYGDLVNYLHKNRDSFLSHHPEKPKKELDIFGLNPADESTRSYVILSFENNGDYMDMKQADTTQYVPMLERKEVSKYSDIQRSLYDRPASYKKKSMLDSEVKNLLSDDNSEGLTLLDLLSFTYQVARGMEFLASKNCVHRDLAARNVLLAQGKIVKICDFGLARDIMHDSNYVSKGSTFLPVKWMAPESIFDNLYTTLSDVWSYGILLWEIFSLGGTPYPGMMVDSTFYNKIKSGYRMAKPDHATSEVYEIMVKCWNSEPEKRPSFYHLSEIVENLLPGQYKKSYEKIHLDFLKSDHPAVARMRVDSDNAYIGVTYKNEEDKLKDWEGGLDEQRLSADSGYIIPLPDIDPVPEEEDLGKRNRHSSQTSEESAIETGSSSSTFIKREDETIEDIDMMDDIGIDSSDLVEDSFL
T4 sequence (Q9HBH9 whole entry): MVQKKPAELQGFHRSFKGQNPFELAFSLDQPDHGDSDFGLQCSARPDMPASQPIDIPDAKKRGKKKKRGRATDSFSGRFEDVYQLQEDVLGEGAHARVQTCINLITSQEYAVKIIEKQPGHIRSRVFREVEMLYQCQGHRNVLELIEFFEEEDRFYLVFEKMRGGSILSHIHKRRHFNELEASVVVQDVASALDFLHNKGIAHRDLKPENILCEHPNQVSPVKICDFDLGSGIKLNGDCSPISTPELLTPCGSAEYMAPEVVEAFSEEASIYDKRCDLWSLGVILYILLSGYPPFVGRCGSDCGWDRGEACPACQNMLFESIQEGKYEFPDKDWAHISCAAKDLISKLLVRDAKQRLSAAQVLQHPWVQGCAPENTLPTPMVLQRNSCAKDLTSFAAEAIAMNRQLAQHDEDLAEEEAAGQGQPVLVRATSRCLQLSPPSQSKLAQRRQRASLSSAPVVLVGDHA

Regarding FAKLAARLYRKALARQLGVAA [MMI-0300], the “% activity” value in test [1] was determined as 18%; in [2] it was 88%; in test [3], 84%; in test [4], 82%; in test [5], 50%; in [6], 94%. Besides, the “% activity” value came out at 14% in test [7], 161% in [8] and 89% in test [9].
As to “HRRIKAWLKKIKALARQLGVAA (Mammal) [MMI-0500]”, the “% activity” value in [1] was determined as 70%; in [2] it was 62%; in test [3] it was 73%; in test [4], 146%; in test [5], 24%; in [6], 19%. Besides, the “% activity” value came to 12% in test [7], 169% in test [8] and 6% in test [9].
Consider KAFAKLAARLYRKALARQLGVAA [MMI-0400], for which the “% activity” value worked out at 22% in test [1]; 76% in [2]; 36% in test [3]; 100% in test [4]; 53% in test [5]; 83% in [6]. The “% activity” value in test [7] turned out to be 18%; in [8], 185%; in [9], 86%.
With YARAAARQARAKALARQLGVAA [MMI-0100], the “% activity” value in [1] was found to be 68%; in [3], 77%; in [5] it was 71%.
On to “YARAAARQARAKALNRQLGVA (Mammal) [MMI-0200]”, for which the “% activity” value in test [1] turned out to be 128%; in test [2] it was 101%; in [3], 141%; in test [5], 57%; in test [7], 73%.
